The record followed here is PMC2602864.

In this test the target is EcoR124I core methyltransferase (HsdM2HsdS1) (not stated (hsd genes of the IncFIV plasmid R124, carried in E. coli)) (UniProt P10484).
UniProt P10484, sequence (P10484 whole entry, chain 1 of 2): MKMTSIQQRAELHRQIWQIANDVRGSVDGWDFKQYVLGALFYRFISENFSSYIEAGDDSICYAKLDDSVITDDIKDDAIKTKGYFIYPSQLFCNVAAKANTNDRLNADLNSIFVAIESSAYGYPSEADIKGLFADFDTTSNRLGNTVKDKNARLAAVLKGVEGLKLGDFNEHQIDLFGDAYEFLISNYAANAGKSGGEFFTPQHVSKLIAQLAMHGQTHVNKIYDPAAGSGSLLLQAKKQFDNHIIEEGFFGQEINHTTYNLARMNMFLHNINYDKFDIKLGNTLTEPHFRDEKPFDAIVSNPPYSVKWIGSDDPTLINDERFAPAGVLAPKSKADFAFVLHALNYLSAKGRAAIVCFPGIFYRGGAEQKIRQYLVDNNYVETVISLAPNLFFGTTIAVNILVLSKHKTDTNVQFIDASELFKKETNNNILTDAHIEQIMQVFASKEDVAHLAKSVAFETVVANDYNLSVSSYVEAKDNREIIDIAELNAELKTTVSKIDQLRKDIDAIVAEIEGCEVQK
UniProt P10484, sequence (P10485 whole entry, chain 2 of 2, further chain): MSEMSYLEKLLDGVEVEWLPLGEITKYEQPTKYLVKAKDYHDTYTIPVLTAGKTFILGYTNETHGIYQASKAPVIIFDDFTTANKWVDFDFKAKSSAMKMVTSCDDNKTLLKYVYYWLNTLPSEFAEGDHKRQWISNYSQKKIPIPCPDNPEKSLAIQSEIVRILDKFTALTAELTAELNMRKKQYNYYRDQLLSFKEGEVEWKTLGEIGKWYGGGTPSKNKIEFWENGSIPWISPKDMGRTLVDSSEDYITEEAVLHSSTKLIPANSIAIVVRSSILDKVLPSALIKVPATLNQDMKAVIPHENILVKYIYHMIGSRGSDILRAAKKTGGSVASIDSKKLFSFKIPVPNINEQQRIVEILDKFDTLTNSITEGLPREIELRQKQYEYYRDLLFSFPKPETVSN

B1: EcoR124I HsdR subunit, wild type (enzyme)
chain: MTHQTHTIAESNNFIVLDKYIKAEPTGDSYQSESDLERELIQDLRNQGYEFISVKSQSAMLANVREQLQNLNGVVFNDSEWRRFTEQYLDNPSDGILDKTRKIHIDYICDFIFDDERLENIYLIDKKNLMRNKVQIIQQFEQAGSHANRYDVTILVNGLPLVQIELKKRGVAIREAFNQIHRYSKESFNSENSLFKYLQLFVISNGTDTRYFANTTKRDKNSFDFTMNWAKSDNTLIKDLKDFTATCFQKHTLLNVLVNYSVFDSSQTLLVMRPYQIAATERILWKIKSSFTAKNWSKPESGGYIWHTTGSGKTLTSFKAARLATELDFIDKVFFVVDRKDLDYQTMKEYQRFSPDSVNGSENTAGLKRNLDKDDNKIIVTTIQKLNNLMKAESDLPVYNQQVVFIFDECHRSQFGEAQKNLKKKFKRYYQFGFTGTPIFPENALGSETTASVFGRELHSYVITDAIRDEKVLKFKVDYNDVRPQFKSLETETDEKKLSAAENQQAFLHPMRIQEITQYILNNFRQKTHRTFPGSKGFNAMLAVSSVDAAKAYYATFKRLQEEAANKSATYKPLRIATIFSFAANEEQNAIGEISDETFDTSAMDSSAKEFLDAAIREYNSHFKTNFSTDSNGFQNYYRDLAQRVKNQDIDLLIVVGMFLTGFDAPTLNTLFVDKNLRYHGLMQAFSRTNRIYDATKTFGNIVTFRDLERSTIDAITLFGDKNTKNVVLEKSYTEYMEGFTDAATGEAKRGFMTVVSELEQRFPDPTSIESEKEKKDFVKLFGEYLRAENILQNYDEFATLKALQQIDLSDPVAVEKFKAEHYVDDEKFAELQTIRLPADRKIQDYRSAYNDIRDWQRREKEAEKKEKSTTDWDDVVFEVDLLKSQEINLDYILGLIFEHNRQNKGKGEMIEEVKRLIRSSLGNRAKEGLVVDFIQQTNLDDLPDKASIIDAFFTFAQREQQREAEALIKEENLNEDAAKRYIRTSLKREYATENGTELNETLPKLSPLNPQYKTKKQAVFQKIVSFIEKFKGVGGKI
Regarding B1, the mean lifetime of a DNA translocation event, R1 complex (one HsdR on the MTase), magnetic tweezers came out at 0.95 s.
